Experimental data from article PMC4756307.

These sequences were tested against T1, CodY (6His-CodY) (Streptococcus suis serotype 2 (strain SC19?)) (UniProt A0A0H3MTH0) (assay: EMSA). Settings: EMSA: 1 ug PCR product with 0-2200 ng CodY in binding buffer (Beyotime; composition, pH and salt not given), 30 min at 37 C, native PAGE, ethidium bromide ….
T1 sequence: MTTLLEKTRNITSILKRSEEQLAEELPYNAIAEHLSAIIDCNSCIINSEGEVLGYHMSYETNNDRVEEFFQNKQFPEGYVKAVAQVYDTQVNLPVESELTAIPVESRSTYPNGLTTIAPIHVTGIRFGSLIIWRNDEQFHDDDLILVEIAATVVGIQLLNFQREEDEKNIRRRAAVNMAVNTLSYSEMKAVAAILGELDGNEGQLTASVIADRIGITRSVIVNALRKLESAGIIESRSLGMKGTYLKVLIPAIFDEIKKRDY

Sequence | binding
ATCTCGGTCTTTGGTTGTTTGGCTTTACAGCTCTATACTTTGTGGCAGCTTATCTGATTGCCCTCAATCCATCTCAAATCTTAAATAGTATCGGACGTATTTTAACCCCTGTTTTTGCGATTTTGATTGTGATTTTGGTGGTGCTTGGTATTGTTAAGTACGGATCAACAAGTCCGTTACCAGCTTCGGAAGCTTACTCAGCAGGACAGGCATTTGGTACAGGATTTATCGAGGGATACAATACACTCGACGCACTTGCTTCTATTGCTTTTAGTGTCGTAGCAGTAAATACCT (double strand) [bap2 promoter] | binds
GGACGTATGCGCCTCTGCTTATGCCAGAAGTCATGAGGTAAATCTCCCTAAAAATTGGGTAGAAAAGCAGATTAAACTTCCACCAATCTATTGAAGATCGTGTGAAGAAGCAGGCTTTAGAAGCAACAAGCCCTGAGACTATTCGAAAGAAATCTAGGGCTATTTTTTCTAATCGGCTATCAGAAGTGAAGTAGCGATCTTTATTAGTGTTCTTTTACTACTTAAGGAAAACCAAGCTGCTCCCTCAAGACTTTATGGGAGCGATTTACAGTCATTT (double strand) [neuB (neu) promoter] | no binding
TCTGTATTTATCATTGTAGTCCTATCTGCAACAGTAGAAAATTATATTGTAAATTTAAGTTTTGTATTTATGCCAATATGTTTTTGTTTATTAAATTCTATATCTACTATGGAATCAACTATTAACAAACAACTGCAAACATAAATTGGCAGGAATAGAGTTTTGAGTTGCTATTAATTTGGTAGAGCATATGTTCTATAGGTGGCAAGATAGAAGATAGTATTTTTTACATGATGATTTTTATGATAGCA (double strand) [cps2J promoter] | binds
AATACAAGCGACGATTCCCTTCGTTGCGATCGGGCTTAATCAAGCCTTGATCTTCATAGTAACGAATTTGACGAGCAGTTAAATCTGTCAACTTCATCACACTACCGATCGGAAAGATAGCTAAGGAACGACGAAACTCTTTTTCTCTCATAATGAACTCCTTTCTGCCTACCATTATAGGAGAATTTTTTTTTGAGGTCAATAGGTGATGTTATATTTTATAACATCATTTATCCTGAAAACGTTTTTTTATAACATTCACATCATAATTAACTAGAATCGCAATGAAAACTCC (double strand) [glnR promoter] | binds
